In patent US20150018409A1, “CHIMERIC POLYPEPTIDES AND THEIR USE” (ADRIACELL S.P.A., priority 2003, published 2015):

What was measured:
[1] = tested on: NHEJ mutated cell lines (V3, xrss5, XR-1, HIS P1.13-11); assay: Colony formation assay of NHEJ mutated cell lines; type: cell-based, rodent
Procedure: Clonogenic assay of CHO cells that were mutated for proteins involved in the NHEJ repair-pathway treated with […]. The cell lines used are AA8 (parental line), V3 (DNA-PCCS^(−/−)), xrss5 (KU80^(−/−)) and XR-1 (XRCC4^(−/−)), HIS P1.13-11 (KU70^(−/−)) and the corresponding parental cell line CHO-K1. Various dilutions of the CHO cells containing the NHEJ mutations as indicated were treated for 24 hours with […] (25 nM, grey bars; 100 nM, black bars) or not treated (white bars); the cells were washed and then grown for 7-10 days, stained with GIEMSA and colonies were counted.
These cell lines were analysed in the nuclease activity assays with […] in vivo and compared to the parental cell lines as indicated. […] Seven to ten days after addition, cell growth was analysed by staining with GIEMSA-blue and quantification of diverse cell-concentrations. […] In analogy, cell growth was quantified after a single treatment with […] for 12 hours (10 nM, grey bars; 75 nM, black bars; not treated, white bars). […] The multiwell-microtiter-plates (for an example see FIG. 13A) were scanned using the VersaDOC® (BioRad) imaging system and growth was automatically quantified with the software package Quantify One® for the analysis of the microtiter-plates (microtiter-plates scanning software).

[2] = tested on: p53 positive or negative cells; assay: Cell cycle response to DSB's by FACS in p53 positive or negative cells; type: cell-based
Procedure: The cell cycle response to DSB's induced by […] treatment were analysed in p53 positive or negative cells. […] Incubation for 36 hours of the cell lines mutated for ATM (AT-5) with […] results in a transient retardation of the cell cycle, as was determined by a DNA content FACS analysis. […] A single addition of […] for 60 minutes to the AT-5 cells was sufficient to induce cell cycle stop after 24 hours (FIG. 8A) and finally leads to cell death, obtained from not correctly ligated DNA, and consequently, the clonogenic activity after a single treatment with […] for 60 minutes was below 0.02% for AT-5 cells. […] In addition, the cells were incubated with adriamycin as a control.

[3] = tested on: MRC-5 cells (ATM positive); settings: SCPVUTAT 100 nM or HU 1 mM
Procedure: [sequence] dependent Ser^15 phosphorylation of p53. The ATM positive cell-line MRC5 was treated with [sequence] (100 nM, SC) or with hydroxyurea (1 mM, HU) for the time periods as indicated; as a control non treated cells were used (O).
P53 phosphorylation on Ser15 in response to [sequence] treatment was assayed in ATM positive or negative cell lines (MRC-5 and AT-5 respectively). For comparison parallel experiments were done with hydroxyurea (HU). […] For this immunoblotting experiments were done with extracts after treatment, by using specific antibodies to a phosphorylated Ser15 in p53 for specific detection.

[4] = tested on: HCT116 cells (hMLH1 mutated); assay: Clonogenic assay of mismatch repair defective cells; type: cell-based, human; settings: similar assays
Procedure: These cells were plated into multiwell-microtiter-plates at different concentrations and treated with [sequence] as indicated and stained with GIEMSA-blu. The multiwell-microtiter-plates (for an example see FIG. 13A) were scanned using the VersaDOC® (BioRad) imaging system and growth was automatically quantified with the software package Quantify One® for the analysis of the microtiter-plates (microtiter-plates scanning software).

[5] = tested on: DSBs in human or rodent cell lines (U2OS, HEK-293, MCF-7, HCT116, WI83, IMR90, MEF); assay: TUNEL assay for DSB induction in vivo; type: cell-based
Procedure: […] was assayed with terminal deoxynucleotidyl transferase (TdT) dUTP-FITC, in a TUNEL reaction (In Situ Cell Death Detection Kit, Roche Diagnostic, Mannheim Germany) which marks DSBs in vivo. The assay was done after fixation of the cells in 4% paraformaldehyde in PBS, 0.1% Triton. After the TUNEL reaction the cells are counter-stained with propidium J. The use of derivatives impaired in the nuclease activity like the construct SC34 as a negative control, allows to estimate background activities. […] This aspect makes the system described in the invention by far more efficient as compared to endonucleases induced from transcriptional units or compared to any of the other type of protein transfection like electroporation, or precipitations with calcium phosphate or libid-derivatives i.e. lipofectin.

[6] = tested on: neuroblasoma cell lines (IMR32, LAN5, GI-LIN) and primary neuroblastoma cell isolates; settings: upon treatment with SCPVUTAT
Procedure: For the analysis the DNA content was assayed with FACS after staining of the cells with propidium J^−.

U2OS cells = assay: FACS analysis of DNA content / cell cycle distribution; type: cell-based, human; settings: for cells in G2 phase: control 20%
Procedure: The distribution of the various phases of the cell cycle of the protein transduced cells was analysed by FACS analysis. Distribution of the DNA content of the cell populations was detected. 2n represents a diploid DNA equivalent (non replicated; G1 phase), 4n represents the tetraploid DNA equivalent (replicated; G2/M phase). For the FACS analysis the cells were separated employing the DDM mode that allows to estimate DNA content of a single cell. U2OS cells were grown for 24 hours (upper row) or 48 hours (lower row) in the presence of increasing amounts of […] (10 nM, 50 nM, 100 nM) as indicated and with only one addition of proteins; non treated cells (control); cells treated with a nuclease impaired derivative of […] (SC34, 100 nM). All the histograms shown represent a measure of DNA content relative to the cell numbers as indicated only on the upper right panel.
U2OS cells were incubated with […] (10 nM, panel B), or with H2O2 (10 μM, panelC), or both ([…], 10 nM; H2O2, 10 μM; panel D), or with no agent as a control (panel A). Further treatment cells were analysed in FACS for DNA content; the percentage of the various cell cycle phases are indicated at the bottoms of the individual histograms.
Finally, to confirm that the DSB's that are produced in vivo also induce perturbations in the cell cycle, DNA content in the various phases of the cell cycle was analysed by Fluorescence Activated Cell Sorting (FACS) after transduction of the proteins of the invention. After the treatment with diverse proteins at various concentrations and during different timepoints, the cells were fixed in 70% ethanol, treated with RNAse A and stained with propidium […].
The FACS analysis was done using a FACSCalibur™ (Becton Dickinson) apparatus. The obtained data were evaluated with the CellQuest™ software program package. At least 3×10^4 single events for every sample were analysed in the DDM mode. The statistic analysis of the DNA content distribution during the cell cycle was done with the MODFIT LT™ software program package. A 2N diploid DNA content correspond to cells in the G1 phase of the cell cycle, 4N represents a relative tetraploid DNA content and corresponds to G2 and/or M phase of the cell cycle. An intermediate DNA content represents S phase corresponding to a population actively replicating DNA during the cell cycle and a content that is below diploid 2N represents cells in apoptosis.
U2OS cells were incubated with 10 nM […] and with 10 μM H2O2 alone or in combination ant the cell cycle profile was analysed by FACS.

B1: SCPVUTAT: single chain PvuII endonuclease (aa 1-157, GSGG linker, aa 2-157) fused to HIV Tat peptide and six histidine tag; SEQ ID NO:2 (protein, listed as Proteus vulgaris)
chain: MSHPDLNKLLELWPHIQEYQDLALKHGINDIFQDNGGKLLQVLLITGLTVLPGREGNDAVDNAGQEYELKSINIDLTKGFSTHHHMNPVIIAKYRQVPWIFAIYRGIAIEAIYRLEPKDLEFYYDKWERKWYSDGHKDINNPKIPVKYVMEHGTKIYGSGGSHPDLNKLLELWPHIQEYQDLALKHGINDIFQDNGGKLLQVLLITGLTVLPGREGNDAVDNAGQEYELKSINIDLTKGFSTHHHMNPVIIAKYRQVPWIFAIYRGIAIEAIYRLEPKDLEFYYDKWERKWYSDGHKDINNPKIPVKYVMEHGTKIYGSYGRKKRRQRRRGGSHHHHHH
[1]; single addition of SCPVUTAT
  colony formation, cells with mutants in the DNA-PK incl. catalytic subunit: strong reduction in the colony formation assay
[1]; single treatment, all NHEJ mutated cell lines analysed
  colony formation activity: strongly reduce colony formation activity
[2]; cells negative for p53
  cell cycle response: do not exhibit arrest characteristics of the cell cycle
[2]; cells positive for p53
  cell cycle response: cell cycle arrest behaviour in G1 and G2 with low S-phase values
[3]
  p53-Ser15 phosphorylation: specific phosphorylation of p53-Ser^15 is obtained
[4]
  sensitivity in clonogenic assay: do not show any increase in sensibility
[5]; 10 minutes after treatment, all cell types tested
  TUNEL positive cells: 90-100%
[5]; few minutes of treatment, concentration in culture supernatant as low as 10 nM
  TUNEL activity: significant TUNEL activity in most of the cells
[6]
  induction of apoptosis: significant amount of apoptosis was induced
U2OS cells; 10 nM SCPVUTAT alone
  cells in G2 phase: 28%
U2OS cells; 10 nM SCPVUTAT in combination with 10 μM H2O2
  cells in G2 phase: 45%
U2OS cells; 10 nM, incubation for 24 hours
  change of cell cycle distribution (DNA content): increase in the teraploid population
